Among the data in patent US20230265146A1 (AMUNIX PHARMACEUTICALS, published 2023) are EC50 values, retold here.

As a reminder, the EC50 is the concentration that produces a half-maximal response. A higher EC50 goes with a need for much substance.

This test concerns the target T1, human IL-12 receptor on HEK-Blue IL-12 reporter cells (human, UniProt P42701 24-662; Q99665 24-862).
T1 construct: whole, on cells; also called 293 HEK-IL-12 reporter cells; HEK-Blue IL12 reporter cells (InvivoGen)
Briefly: Flow cytometry (MFI AF488) on HEK-Blue IL-12 reporter cells; bound protein detected with a fluorescent anti-His-tag antibody. As for the experimental part: HEK-Blue IL-12 reporter cells (Invivogen, as described in Example 8) that express the human IL-12 receptor were used to assess binding of the IL12 constructs to the IL-12 receptor. Increasing concentrations of an exemplified “XTENylated IL12” construct (SEQ ID NO: 2) (1 μM) containing a recombinant single chain mouse IL12 with an N-terminal his-tag plus an XTEN sequence followed by a release segment sequence were incubated with 50,000 293HEK-IL-12 reporter cells that were subsequently washed and surface bound IL12 monitored by flow cytometry using a fluorescent-labelled anti-His-tag antibody for detection. Binding by the XTENylated IL12 was compared to binding of the reference IL-12 construct (SEQ ID NO:4) that contained a recombinant single chain mouse IL-12 and a C-terminal His-tag. Due to release of the His-tag from the XTENylated IL-12 following its activation with human matrix metallopeptidase 9 (MMP9), we were unable to assess IL-12 binding of its activated form in this assay. The XTEN fragment released by MMP9 cleavage retained the His-tag and was used as a specificity control for binding. As shown in FIGS. 9A-9B, the XTEN, when present in the fusion protein masked the cytokine binding to its corresponding IL12 receptor.

T1 sequence (Q99665 24-862, chain 2 of 2, other chains not shown): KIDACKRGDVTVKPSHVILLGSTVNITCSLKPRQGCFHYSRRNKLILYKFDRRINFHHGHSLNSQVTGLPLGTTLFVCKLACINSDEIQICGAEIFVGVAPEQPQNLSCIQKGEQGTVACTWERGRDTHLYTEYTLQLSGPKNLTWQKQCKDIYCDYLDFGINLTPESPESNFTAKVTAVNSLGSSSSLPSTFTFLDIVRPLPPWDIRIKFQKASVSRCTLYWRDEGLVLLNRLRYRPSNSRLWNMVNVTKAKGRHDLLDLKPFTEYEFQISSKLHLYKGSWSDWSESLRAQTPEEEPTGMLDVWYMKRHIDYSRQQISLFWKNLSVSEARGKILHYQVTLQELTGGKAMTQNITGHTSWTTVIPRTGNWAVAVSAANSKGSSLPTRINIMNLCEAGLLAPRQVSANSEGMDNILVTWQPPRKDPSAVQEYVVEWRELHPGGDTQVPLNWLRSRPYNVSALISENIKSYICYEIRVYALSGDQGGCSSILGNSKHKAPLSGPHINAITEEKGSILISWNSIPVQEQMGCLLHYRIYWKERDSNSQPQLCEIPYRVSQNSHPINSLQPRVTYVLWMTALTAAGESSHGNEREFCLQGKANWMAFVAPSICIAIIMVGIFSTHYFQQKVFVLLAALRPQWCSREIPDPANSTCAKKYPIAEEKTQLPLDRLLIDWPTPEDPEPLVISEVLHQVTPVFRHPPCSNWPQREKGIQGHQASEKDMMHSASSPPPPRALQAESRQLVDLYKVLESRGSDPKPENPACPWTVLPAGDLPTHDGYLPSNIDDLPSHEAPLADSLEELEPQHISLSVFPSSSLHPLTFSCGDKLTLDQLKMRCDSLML

B1: Reference IL12 construct (SEQ ID NO: 4) (ligand)
chain: MWELEKDVYVVEVDWTPDAPGETVNLTCDTPEEDDITWTSDQRHGVIGSGKTLTITVKEFLDAGQYTCHKGGETLSHSHLLLHKKENGIWSTEILKNFKNKTFLKCEAPNYSGRFTCSWLVQRNMDLKFNIKSSSSSPDSRAVTCGMASLSAEKVTLDQRDYEKYSVSCQEDVTCPTAEETLPIELALEARQQNKYENYSTSFFIRDIIKPDPPKNLQMKPLKNSQVEVSWEYPDSWSTPHSYFSLKFFVRIQRKKEKMKETEEGCNQKGAFLVEKTSTEVQCKGGNVCVQAQDRYYNSSCSKWACVPCRVRSGGGGSGGGGSGGGGSRVIPVSGPARCLSQSRNLLKTTDDMVKTAREKLKHYSCTAEDIDHEDITRDQTSTLKTCLPLELHKNESCLATRETSSTTRGSCLPPQKTSLMMTLCLGSIYEDLKMYQTEFQAINAALQNHNHQQIILDKGMLVAIDELMQSLNHNGETLRQKPPVGEADPYRVKMKLCILLHAFSTRVVTINRVMGYLSSAHHHHHHHH
B1: a half-maximal effect (EC50) was put at 4.5 nM.
